This note sets out measurements from patent US20140056902A1 (Kyowa Kirin, published 2014).

B8: human mature dimer BMP10 recombinant protein (manufactured by R&D systems, Cat#2926-BP) (ligand)
chain: NAKGNYCKRTPLYIDFKEIGWDSWIIAPPGYEAYECRGVCNYPLAEHLTPTKHAIIQALVHLKNSQKASKACCVPTKLEPISILYLDKGVVTYKFKYEGMAVSECGCR

Assay [1] addresses T1, human mature dimer BMP9 recombinant protein (manufactured by R&D systems, Cat#3209-BP) (human, UniProt Q9UK05 320-429).
T1 construct: Bought protein; also called human BMP9; human BMP9 recombinant protein (manufactured by R&D systems)
T1 sequence: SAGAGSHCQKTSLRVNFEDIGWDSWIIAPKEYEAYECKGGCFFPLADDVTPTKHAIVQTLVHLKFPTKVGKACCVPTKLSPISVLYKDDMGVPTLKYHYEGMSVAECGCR
As to the kind of experiment: SPR (Biacore T100), antibody captured on anti-human IgG, human BMP9 as analyte. On the procedure:
(§1) For the purpose of comparing binding activity to human BMP9 between c10D5-2-3 antibody and 22 types of 10D5-2-3 antibody-humanized antibodies obtained in Example 22-7, binding activity to human BMP9 recombinant protein (manufactured by R&D systems) was measured by surface plasmon resonance (SPR) using a BiacoreT100 instrument (manufactured by GE Healthcare bioscience).
(§2) Anti-human IgG antibody was immobilized onto a CM5 sensor chip (manufactured by GE Healthcare bioscience) using a Human Antibody Capture Kit (manufactured by GE Healthcare bioscience) in accordance with the accompanying protocol. 0.4 μg/mL of c10D5-2-3 antibody or each humanized antibody was applied to the flow cell onto which anti-human IgG antibody was immobilized, at a flow rate of 10 μL/min for 2 minutes.
(§3) Subsequently, human BMP9 recombinant protein (manufactured by R&D systems, Cat#3209-BP) was subjected to 2-fold serial dilution starting from […] to give 5 concentrations, and applied at a flow rate of 10 μL/min, and association was monitored over 3 minutes and dissociation over 3 minutes at a flow of 10 μL/min. The sensorgram thus obtained was analyzed by BiaEvaluation Software (manufactured by GE Healthcare bioscience) to calculate the rate constant of each antibody.
Background: In SPR one partner is held on a chip, and binding of the other changes the refractive index at the surface.

Assay [2] has as its target T1, human mature dimer BMP9 recombinant …. As to the kind of experiment: SPR (Biacore T100), antibody captured on anti-human IgG, human BMP9 (R&D 3209-BP) as analyte, 5 concentrations from 1 nM. As for the experimental part:
as §1, §2, §3

The target of assay [3] is T2, full-length human ALK1 expressed on the reporter cell line ALK1/p(GCCG)12-Luc/HepG2(38.5) (human, UniProt P37023 22-503). As to the kind of experiment: cell-based or functional assay.
T2 sequence (P37023 22-503 limits assumed): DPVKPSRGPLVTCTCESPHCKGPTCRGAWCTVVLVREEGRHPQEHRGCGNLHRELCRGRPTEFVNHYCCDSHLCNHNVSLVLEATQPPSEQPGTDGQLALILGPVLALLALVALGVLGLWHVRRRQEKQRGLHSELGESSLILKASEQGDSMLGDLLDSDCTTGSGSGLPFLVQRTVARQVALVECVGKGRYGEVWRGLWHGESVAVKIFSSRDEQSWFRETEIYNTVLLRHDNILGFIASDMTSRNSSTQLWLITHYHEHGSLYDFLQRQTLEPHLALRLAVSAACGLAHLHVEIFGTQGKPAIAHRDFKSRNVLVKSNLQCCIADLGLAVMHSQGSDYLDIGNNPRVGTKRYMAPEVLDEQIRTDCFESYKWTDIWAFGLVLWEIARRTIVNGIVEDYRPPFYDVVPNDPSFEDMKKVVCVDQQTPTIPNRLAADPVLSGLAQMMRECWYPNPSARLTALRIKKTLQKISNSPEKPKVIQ
Assay [4] addresses T2, full-length human ALK1 expressed on the …. As to the kind of experiment: cell-based or functional assay. This is another data set of the same source.
The target of assay [5] is B8. As to the kind of experiment: ELISA, immobilized antigen (100 ng/mL coat), biotin-labeled antibody at 100 ng/mL, absorbance 450-570 nm. On the procedure:
To examine specificity of the obtained antibodies to human BMP9, their binding ability to human BMP9 and human BMP10 having the highest homology to human BMP9 was tested by comparison. First, 100 ng/mL of human mature dimer BMP9 recombinant protein (manufactured by R&D systems, Cat#3209-BP), or human mature dimer BMP10 recombinant protein (manufactured by R&D systems, Cat#2926-BP) prepared in 50 mmol/L NaHCO₃ buffer (manufactured by Wako, Cat#191-01305) was added to a 96-well plate for ELISA (F96 MAXISORP NUNC-IMMUNO PLATE, manufactured by Thermo Fisher Scientific, Cat#442404) at an amount of 50 μL/well, and left at 4° C. overnight for adsorption.
Subsequently, 6D10-1-1 antibody, 10D5-2-3 antibody, 3B7-3-3 antibody, R&D antibody, or anti-BMP10 antibody (manufactured by R&D, Cat#MAB2926) that was labeled with biotin using a Biotin Labeling Kit-NH2 (manufactured by COSMO BIO, Cat#LK03) was prepared at a concentration of 100 ng/mL using 10% Super Block in TBST which was prepared by mixing SuperBlock and TBST at a ratio of 1:9. 50 μL/well thereof was aliquoted as a primary antibody, and left at room temperature for 1 hour.
The plate was washed with TBST five times, and 50 μL/well of the TMB substrate reagent (TMB+ Substrate-Chromogen, manufactured by Dako, Cat#S1599) was added for color-development. When proper color was developed, 50 μL/well of the 1 N sulfuric acid solution (manufactured by Wako, Cat#192-04755) was added, and absorbance (450 nm-570 nm) at a sample wavelength of 450 nm and at a reference wavelength of 570 nm was determined using a plate reader (manufactured by Spectra Max, Molecular Devices).
Background: In an ELISA, binding on a coated surface is turned into a signal by an enzyme label.

B1: 10D5-2-3 antibody-humanized antibody HV0LV3 (antibody, V domains shown)
VH: EVQLVESGGGLVQPGGSLRLSCAASGFTFSNYWMNWVRQAPGKGLEWVGHIRLKSDNYATHYAESVRGRFTISRDDSKNSLYLQMNSLKTEDTAVYYCARGSNYVFAFWGQGTLVTVSS
VL: DIVMTQSPDSLAVSLGERATINCRASESVDNYGISFMNWFQQKPGQPPKLLIYAASNQGSGVPDRFSGSGSGTDFTLTISPLQAEDVAVYFCQQSKEVPWTFGQGTKLEIK
notes: Expressed from pKANTEX93
For B1, in assay [1], the binding result is given as “no binding (tested: human BMP9 up to 1 nM)”.

B2: 10D5-2-3 antibody-humanized antibody HV9LV0 (antibody, V domains shown)
VH: EVQLVESRGGLVQPGGSMRLSCAASGFTFSNYWMNWVRQAPGKGLEWVAHIRLKSDNYATHYAESVRGRFTISRDDSKSSVYLQMNSLKTEDTGIYYCTGGSNYVFAFWGQGTLVTVSS
VL: DIVMTQSPDSLAVSLGERATINCRASESVDNYGISFMNWYQQKPGQPPKLLIYAASNQGSGVPDRFSGSGSGTDFTLTISSLQAEDVAVYYCQQSKEVPWTFGQGTKLEIK
notes: Expressed from pKANTEX93
Turning to B2, in assay [2], the Kd (as a rule, the concentration at which binding is half-saturated) turned out to be 6.45 pM; the koff – broadly, the rate constant with which the complex falls apart – worked out at 0.000859 s⁻¹; the kon (as a rule, the rate constant with which the complex forms) was determined as 1.33e+08 M⁻¹ s⁻¹.

B3: 10D5-2-3 antibody-humanized antibody HV9LV6 (antibody, V domains shown)
VH: EVQLVESRGGLVQPGGSMRLSCAASGFTFSNYWMNWVRQAPGKGLEWVAHIRLKSDNYATHYAESVRGRFTISRDDSKSSVYLQMNSLKTEDTGIYYCTGGSNYVFAFWGQGTLVTVSS
VL: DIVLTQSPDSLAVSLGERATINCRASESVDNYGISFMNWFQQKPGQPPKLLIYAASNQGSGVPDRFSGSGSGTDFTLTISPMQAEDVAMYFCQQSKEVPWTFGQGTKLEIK
notes: Expressed from pKANTEX93
Turning to B3, in assay [2], the dissociation constant (Kd) came out at 5.13 pM, the koff was found to be 0.000325 s⁻¹ and the kon was determined as 6.34e+07 M⁻¹ s⁻¹.

B4: 10D5-2-3 antibody-humanized antibody HV9LV3 (antibody, V domains shown)
VH: EVQLVESRGGLVQPGGSMRLSCAASGFTFSNYWMNWVRQAPGKGLEWVAHIRLKSDNYATHYAESVRGRFTISRDDSKSSVYLQMNSLKTEDTGIYYCTGGSNYVFAFWGQGTLVTVSS
VL: DIVMTQSPDSLAVSLGERATINCRASESVDNYGISFMNWFQQKPGQPPKLLIYAASNQGSGVPDRFSGSGSGTDFTLTISPLQAEDVAVYFCQQSKEVPWTFGQGTKLEIK
notes: Expressed from pKANTEX93
In the case of B4, in assay [2], the Kd is 3.52 pM, the koff amounted to 0.000279 s⁻¹ and the kon came out at 7.91e+07 M⁻¹ s⁻¹.

B5: 10D5-2-3 antibody-humanized antibody HV0LV4 (antibody, V domains shown)
VH: EVQLVESGGGLVQPGGSLRLSCAASGFTFSNYWMNWVRQAPGKGLEWVGHIRLKSDNYATHYAESVRGRFTISRDDSKNSLYLQMNSLKTEDTAVYYCARGSNYVFAFWGQGTLVTVSS
VL: DIVLTQSPDSLAVSLGERATINCRASESVDNYGISFMNWYQQKPGQPPKLLIYAASNQGSGVPDRFSGSGSGTDFTLTISPMQAEDVAMYYCQQSKEVPWTFGQGTKLEIK
notes: Expressed from pKANTEX93
In the case of B5, the binding result in assay [1] is on record as “no binding (tested: human BMP9 up to 1 nM)”.

B6: 10D5-2-3 antibody-humanized antibody HV9LV2 (antibody, V domains shown)
VH: EVQLVESRGGLVQPGGSMRLSCAASGFTFSNYWMNWVRQAPGKGLEWVAHIRLKSDNYATHYAESVRGRFTISRDDSKSSVYLQMNSLKTEDTGIYYCTGGSNYVFAFWGQGTLVTVSS
VL: DIVMTQSPDSLAVSLGERATINCRASESVDNYGISFMNWFQQKPGQPPKLLIYAASNQGSGVPDRFSGSGSGTDFTLTISSLQAEDVAVYFCQQSKEVPWTFGQGTKLEIK
notes: Expressed from pKANTEX93
Take B6: in assay [2], the Kd is 3.89 pM, the koff was 0.000347 s⁻¹ and the kon was 8.91e+07 M⁻¹ s⁻¹.

B7: 10D5-2-3 antibody-humanized antibody HV9LV4 (antibody, V domains shown)
VH: EVQLVESRGGLVQPGGSMRLSCAASGFTFSNYWMNWVRQAPGKGLEWVAHIRLKSDNYATHYAESVRGRFTISRDDSKSSVYLQMNSLKTEDTGIYYCTGGSNYVFAFWGQGTLVTVSS
VL: DIVLTQSPDSLAVSLGERATINCRASESVDNYGISFMNWYQQKPGQPPKLLIYAASNQGSGVPDRFSGSGSGTDFTLTISPMQAEDVAMYYCQQSKEVPWTFGQGTKLEIK
notes: Expressed from pKANTEX93
For B7, in assay [2], the Kd was 6.38 pM, the off-rate constant (koff) turned out to be 0.000739 s⁻¹ and the kon amounted to 1.16e+08 M⁻¹ s⁻¹.
With B8, the “EC50 (read off the curve); luciferase activity (RLU) of human ALK1 reporter cells, with 3 ug/mL 6D10-1-1 antibody alone (filled square)” value in assay [3] is roughly 0.4 ng/mL. Moreover, in assay [4], the “EC50 (read off the curve); luciferase activity (RLU) of human ALK1 reporter cells, with 3 ug/mL 10D5-2-3 antibody alone (filled square)” value is roughly 0.3 ng/mL; the “EC50 (read off the curve); luciferase activity (RLU) of human ALK1 reporter cells, with the complex of 3 ug/mL 10D5-2-3 antibody and 2 ng/mL human BMP9 (open triangle)” value is roughly 0.3 ng/mL; the “EC50 (read off the curve); luciferase activity (RLU) of human ALK1 reporter cells, with the complex of 3 ug/mL 10D5-2-3 antibody and 10 ng/mL human BMP9 (open circle)” value was roughly 0.2 ng/mL.

B9: 3B7-3-3 antibody (antibody, mouse IgG1, V domains shown)
VH: EVQLQQSRPELVKPGASVKISCKASDYSFTDYYMNWVKQSPDKSLEWIGEISPSSGGTTYNQKFKAKATLTVDKSSSTAYMQLKSLTSEDSAVYYCATRGAFYFDYWGQGTALTVSS
VL: QIVLTQSPALMSAFPGEKVTMTCSASSSVSYMYWYQQKPRSSPKPWIYLTSNLASGVPTRFSGSGSGTSYSLTISSMEAEDAATYFCQQWSSNPRTFGGGTKLEIKR
notes: Mouse monoclonal from a BMP9 KO mouse hybridoma; mouse IgG1 heavy chain, kappa light chain
As to B9, the binding result in assay [5] is “no binding (tested: 100 ng/mL)”.

B10: 10D5-2-3 chimeric antibody (c10D5-2-3 antibody) (antibody, V domains shown)
VH: EVKLEESRGGLVQPGGSMKLSCVASGFTFSNYWMNWVRQSPEKGLEWVAHIRLKSDNYATHYAESVRGRFTISRDDSKSSVFLQMNNLRAEDTGIYYCTGGSNYVFAFWGQGTLVTVSA
VL: not shown
notes: Human chimeric antibody; The V regions were cloned into the humanized antibody expression vector pKANTEX93
For B10, in assay [2], the equilibrium dissociation constant (Kd) was 4.52 pM, the off-rate (koff) turned out to be 0.00024 s⁻¹ and the kon stood at 5.32e+07 M⁻¹ s⁻¹.
